assay: protease stability score; higher = more stable; yeast display proteolysis, trypsin and chymotrypsin;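 also: relative to predicted unfolded state with 0 unfolded-like and 1 meaning tenfold more protease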

In order of falling protease stability score:
1. DESEETAVRMFKHWIRMIETGDEDSLEELADPNVRLEVNGQEVHGRELFLRFFLEMRIKRVRLRHIETQGEKLIIHGELDGEINGRRQETRVIIIVRKVDGKWIIKSIRIE  2.76
2. SEDEELARIIMHLLEHATKTGDERILRKLLDPHVKIRVNGKDLIGWEEEHRRHEKLGADHLHLELIFKDWEFVGDYIKVHGEMRVRVNQGDKTDERNYEVRFYLLKVNGRWILESIQIH  2.63
3. SEEEHDTRRAIEIFLRIIMTGNEEDFERLFDPDARSEWNGVELHGREIITHIWLEIFDRFPNIKIEVRVERYRIQGEKVDIDMELIFRVGDKEDSRKTRMHVLKVDGKWTVKLFKIK  2.33
4. SESHDLLEEFVRLILHLWRTGDEEILHNMADPNTQMHIGDKTYHGREEAVDVIHKLLKHLRFKHLHIDHIDIQGDWVRITGHLHVKVDGREIQREVSSVVIKINGRWILRSERID  2.27
5. HESQEHDDRILDLFETLLRTGDWERLFQLADPHVRLRLHYGDKEIHQVGREEVVRMFLWWRERFGVDHFEVHEVRVVDGVNHIDGRLTVNGRNRRTEIVFIVVNGRIKEFEVRHR  2.24
6. SEEEEEVEEFIHIFTESLKTGDEHSLRRLVDPHVRIEWNGRTHHGWQMFTRLVREARVEIVVRDIRVINGRAIINGELRYEQGDKTFTTEIEIIVVKFDGKWHMHHVRYK  2.21
7. DDEDEHWETLARHFVDNYLTGDWKRLWEMLDPNARLNVNGKEYHGREVIIRVLRKELEDLGVDVVDVEDIRVYGNKVDFHMTVRVGDKERRLEIDVHIVDGRIRKIIIRID  2.2
8. DSEEEDARRALQEFLEHLATGNWEVLTKMMDPNTRLDVDGRDIHGWDEVKHHLKEMRVTIDHLHIERYIVQGEKVDIRGRVHILKEFDGKVLRHDRHVRIIFEKVDGRWIIHKIEHR  1.99
9. DEDREEAIKTVEETVELIATGDFEKFEELVDPNVRIDVNGVDVIGREDWRRRVEEIRISMRDSDIKRVRSVNGVMHVDGRIELEVHVNGKTKNVNLRTHWYIVKINGRWLIHSVHFV  1.99
10. SEEEEESRKMLELFKELLETGDEEDMTKLADPNVRIIYDGKHLHGRHVAHDVWHELSNRVKNAKFHFDVIKIVGEKVILEITIHVDGQDIESSTILDKFNGKWYMEEVFFH  1.92
11. DEIERKVIEFWHLLRHALITGDEDLIEDLFDPHVRTDIGDKEHHGREEFRRLWREHGIRIKDVHIEHVTIIGNKVDMEVRFHLEINGRETHKRVILVAQKIDGRWRIREYHVK  1.88
12. SEIEEHIKHMAHEILHNMLTGDWRRFSELADPNVRITVQQGDKVREYHGWESWKLLLDELRLHRFEFKDMHVQGNYAHIIGRQVGEFDGVRQDRDIEIIHVVVNGRIKQVIVHVE  1.86
13. SEDDERMERLTRILLEALETGDEDALRELIDPNARVDVNGVRDHGWKEVRKLLKELGVDHIKIHDHHIQGEKSRIDGEIHFNGKSERVTILWIMINGRVKFMSVKHT  1.79
14. SEKDDHALRVLEEYLHLFLTGNEEVMERLVDPHVRFIYGDKEFHGRELMIRWIREEREQYDHIHWEIRHFESQGDKAHSEVELRIRQGDKRIHVDMHIHIEVVNGRWKRIEVRER  1.78
15. EEDQEIFEQAMRELINSNLTGNEHRMQELADPHVRLIVGDKTYIGRESIWRFLFEWRIDHIEIRSYDIQGDKVHVDIEVHMRYGDKSTVSRMELRAEKVNGRWHIHFIRIH  1.75
16. SEEKKAIDEVLRLIFEAELTGNEDELEHLIDPHVKFHIDGVDVHGWEYLSYWIRQIRIHNLHPRSVEIHVYNGRVEVNIRGHYEGTINGRRTTFDMRVHIRIEKIDGVWIVREMSRHNH  1.7
17. SEEEESAKIAIKVMLHSLHTGDEHTMSRLMDPNAREIINGRHNHGREVILEFLRRLGFTKVEIKDFRLTHMSVQGEFVFVHGTTNGEFNGVDTNVDLEIVVLKVDGRWTIQSVFYR  1.67
18. DEDEEDAHRAVQKLTEVINTGDWETFEKFADPNTRFEYGNFHIHGREVIRHFWLHEVEKFKNITIFIRHVQVINGRVESHGENRFNGKSYHFHIIFRKFNGRWHLERIHLE  1.61
19. SEEEEYARKAAEEFIKHVETGNEDKIILLFDPNALYVYNGVELIGWHVFKEHTHRFKNIRRHITHVEIRVINGVVHVHIDGRFHVNGVDVEQEINIVFRKINGRWKIESNEERFR  1.57
20. DEEKKAIRKVWELVIHSLVTGDEDSVEKLLDPHVRVHINGVHLHGMETFRHTFHEWRLEIKSVHIQDMDSINGVARLDISFVGRFKFDGRVEETIIDIHLVVNKINGRWVIEEQKFE  1.48
21. TEDERMNKEFHRLIWELIDTGDEETLRKLADPNTRLEVNGKTIIGREEFLSIWKHELHMLGVKHLEIHIRSVMFFENRVENDVELVLHIGEYEERRRIHIFLIKINGKWYHKSERIR  1.46
22. SDWNEFLIEVAELLLRWLSTGDEESFHRYVDPRVRLEFNGKELHGREELARFLRHLRWILDHLEFTSREDQGEKFRVEGKSHGHLFFENHFERHDLKNDLNLILVNGRIKEISLRLE  1.42
23. DEEERSAKDFSERVFEEDRTGDEERWERLADPNVRLDINGKEHHGRELVMKYRLEFLRRVKNMVIRLEHIEIRVFDGKLTLHIHGVINVDGKTIHFDLIIIVRKVDGRWRIDEVIIEIK  1.4
24. THEEHFDERVARHLHENFLTGNEDIFEHLADPHTRIIIVQGDKMIHFHGWEWFAMKMLEDLHRIKGIRITLRHINIQGDKWILEMKVDIGDKELETEIIIHVINGKIESVRIIIR  1.35
25. DEHKEEIKKFIEEWERSMITGDEDRLWELADPNTRLRQGEFEIHGMEILIEAEHRIVEKYKGLTIESIEMKHIDIINGVVVLYSKIRVRQGDKETEIFIIIYIIKINGQWRLHSLEIR  1.34
26. DHRDEVFEELVRLIIHFLETGDWKSLEELADPNVRVTVFYNGRQDNNIGRKQWAEAWERLLHLLGIKHHHMHRYHIQGDKIHIIMNFVVNGQEFTVHIDITVFNGRMKSSRIHVE  1.27
27. SESHHLAKHVVHLFMHAVSTGDEKLLRELLDPDVRVDINGVELIGMEDFQKWLHEWREHMHDSKVHRVRDYNGVLESDVKVRRVLIVDGVRLEEETHSEVIIVKINGRWHVKHVRYR  1.26
28. NEEEELLHRLAKRFIELFLTGDWEVMEKLFDPHVKIDVNGRESHGREQVWHLLMHLLHELRIHHILIRSFDVFDGRAHSSVEVNGEFNGKRDLTEAEVVIVSVDGKMKSVSIKLR  1.23
29. DEEHKFQHDISIFFMKLIETGDEDTLIDMADPNARSEINGKEVHGMEDAYKWWIDFLRQMGIKHLHVETFHVVNGQTKVHSRVHVGDKEFEVEIRLIIINGRLHEIEIIVRTR  1.21
30. SESEHLLHTAHELVLRLQETGDWDEIIELADPNVRMEIGDKEIHGREEFERWSREMRFEHVEIHDMRVQGNKADLDGRMRGHFNGRTIDTRVKIIFHKVDGRWLITSYHVK  1.18
31. DDEERILHRIKELFEAAMHTGDWRLEFQQADPHTRVEIGDKEIHGMENIFDMLEDFWRELGIDQIDVEVRDEDSHIQGDKIILHVDITLRYNGVQERFKSTIILQKIDGRWHKKTEHRG  1.16
32. DREEEKLLHAIKLLLHNWMTGDEDSEIDLMDPNARIVWNGVELHGMTEVRRFLHEYHRRFDVFTHTHIDHYRVIGDKAESHIRLEGSVDGRTIKHQTFILMSKYNGKWTNQTLTFE  1.13
33. TKDDEDRKHFEKLLRHSLETGNWHDMQRNADPNVRLNVNGVEIHGMDTAYELWVEELNRADHIEIHMEHSTRVGDKLHLDVNVIMKQGDKHIERRVRLVVLKINGRWFIHSVHVH  1.1
34. SEDEEEISEFTRMHLEDIITGDEDTLRRLVDPNVRIFIDGKHIHGMETYVKRLDENFKHLGVDHVEIRIHQIRLINGRARVDGVLIIEIGDKREERRTFLILLKVNGRWVMEEYRIH  1.07
35. SEEEEISKTAIELMIRALHTGDWQHWLHLADPHYRVNINGREHHGREDSLRIINELLELLGVERVELRLEDFRVIDGRIHIITKMHYNGVVTDNRLIMKKVDGKWQLDTVIVT  1.05
36. DETHRDMEEALRLFVRLLETGNEEILSKLVDPHVKIDFENHQHIGMEDWMKFMHHIRLDSMRIDDFKLIGDKARSDTTLDGNVNGRHFKFKTWIVAQKVDGRWLEHSVEYR  0.885
37. TEEEELLKKFMKDFIQKHVTGDWDSLYKMADPDVKWHINGQQSIGREEVHRMWSEKLKRIDHIEHFHDESIHVIDGRVTLRGRITGNVDGRRYDVEVDFHLFVVDGKLKQFHVHHQ  0.849
38. SETHMESKIASEIFSDIMHTGDFRTLLRYADPHVRYIVGDKTMHGREIMVEEFKELWKTWGVDRVEVRIEDIKVIGEKVEIHGTLIIGEKTLRVVVISTKVNGQWIQDTFNVDEK  0.838
39. DELEEETERMFRIIIEFMLTGDWKTLYKLFDPNMLMIINGKELHGRESMATALKFWLRHIREDDIKIHHVELQGEKAISDGRSRGEIGDKEQTRKVHIEVIVINGRVHHVRVDIH  0.819
40. DSDQSKREMDKFLEMVSTGDPDEVNRLLDKDAHAHVGDQTYHGREEISHMWKELREKIDHLEVHDYKVNGNKLEVDMHATINGQNVVFTVVAVLRNGHFESVEVQYRSEEEEEKVKR  0.776
41. HEEDERIEHFFELYKRSLKTGNEEIIEYLFDPHVRYEQGDWEVHGRTEFIEMLKHLRFHTVRLRDYRLIGDYVHLDIELEGRVGDKNLHVKSTLIALKVDGRWRIHTLEIE  0.772
42. HEDEEMSQRMLDELMRFSRTGDWQRSAELADPHVRIIIGDKHLHGMEHWSELLKRIDHSHFHLRHVDIFENHIRLQGELRLHINGVEHRHEVIIKAHKVDGQWILESVEIR  0.768
43. DEDHESWERAYNIYLHALRTGDEERNHELADPRVLTHIDGVELHGREMMTRVMTELRIHEHRIHRVHIIGEKIDIDIEVRFRWNGKLVDTRTHEHRLKVDGKWLLTRFEVR  0.76
44. SHDEEWARRFFEDFVRAILTGDEEHLFKNVDPNVRVEIGDKELHGREDFHQHLHEIRIKRFEVHDLTLQGEKVEEDIEMDGQVNGQRFRTRQRVVVDWVNGRFHHLKIEWE  0.715
45. TEHEHEAEDALEKSIRHFHTGDEDTLKHLMDPNVRNDIDGKHIHGREDVLDIMIRIPNVRSEIDDVRVRHVNGRIEVIVDGILYFNGRTVEVRVILIMQKINGKWYITSLEIRRR  0.628
46. TEEDHELRLAHEELHRDLDTGDWESFMRYMDPRARVHYNGREFIGREFAVKFYLDVLNKYKGLTFRIHDIRIFDGVLFVRVKFHFDGQWLHSSEVALKVNGQWHNHHVSFI  0.611
47. DEYKRDADEVIRLWAEAMETGDEKLFLELFDPDTRSIFNGVELHGRQDIEMWRNRYDHVRHVRTEVEDSHIYNGRVEDHVRLILDVEVNGQREHHSHEILVYSVKFDGRWHFTMVEIR  0.607
48. RDTEETVENASKRWVRTMETGDEDVLHRLLDPHVRVEAENHEIHGREIVSTHIREILEKLGMTIHIHLKDVRVQGNKAEIDMHIEYIIDGRITSHDYTLINRKINGRWLVERVIIN  0.31
49. SEVEEFVKRVIHLFHKAFLTGDEHTLIELIDPNARYDVDGRDVHGREIIVEFISTMWRDRGIRIKHVHIEERRYINGRIEIHSKIDVTIGDKREHLETSMIWVKINGQWFIEILIVR  0.233
50. DESEERSRHATELFIRAIHTGDEHTLMNLLDPHVRTHYGDKEVHGRENVVKVMLELLHKLGADHVRWEYHDFKDINGRLHMDWRLHVVVGDKELTLQTHIITEKINGRWHSKYMEIR  0.183
